Experimental data: the nanobody polyreactivity screen of Harvey et al. (2022)

Assay: yeast display, Sf9 membrane polyspecificity reagent, FACS + sequencing; frameworks hold sequencing errors
Outline: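 Using colony PCR, genes from sorted yeast display clones were amplified, then sequenced on MiSeq at 2 × 250 and filtered by CDR length. The clones had been stained with 10% biotinylated, detergent-solubilized Sf9 membrane reagent for 1 hour at 4 °C and sorted by FACS into low and high (top ~1%) gates on anti-HA and streptavidin fluorescence. Polyreactivity labels come from the gate of origin.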

Row | Sequence | polyreactivity (PSR sort gate)
1 | QVQLVESGGGLVQAGGSLRLSCAASGSIFKVNVMGWYRQAPGKERELVAAISRSGGNTYYADSVKGRFTISRDNAKNTVYLQMNSLKPEDTAVYYCATGASYLRRYDHPHSDVDYWGQGTQVTVSS | low polyreactivity
2 | QVQLVESGGGLVQAGGSLRLSCAASGRILHRYVMGWYIQAPGKERELVAAISSGGSTTYADSVKGRFTISRDNAKNTVYLQIYSLKPEDTAVYYCAKYSFWSTSRMDYWGQGTQVTVSS | low polyreactivity
3 | QVQLVESGGGLVQAGGSLRLSCAASGNTIGSNAMGWYRQAPGKERELVATISKRGGSTYYADSVKGRFTISRDNAKNTVYLQMNSLKPEDTAVYYCATTSTRYWAFSSRPDYRDDYWGQGTQVTVSS | high polyreactivity
4 | QVQLVESGGGLVQAGGSLRLSCAASGRIFGGYAMGWYRQAPGKERELVAAISWRGGTTYYADSVKGRFTISRDNAKNTVYLQMNSLKQEDTAVYYCNADVVRYRHWHRGDYWGQGTQVTVSS | low polyreactivity
5 | QDQLVESGGGLVQAGGRLRLTCAASGAIFSNYAMGWYRQAPGKERELLAAITNGVSTNYAVSVKGRLTISRDNAKNTVFLQMNSLKPEDTAVYYCAAVGYRATYRVGGYLRYYYWGQGTQVTVSS | high polyreactivity
6 | QVQLVESGGGLVQAGGSLRLSCAASGRIFYVNAMAWYRQAPGTEREFVAAIRVDGASTYYADSVKGRFTFSRDNAKNTVYLQMNSLKPEDTAVYYCAARTRSYWSTTYYYWGQGTEVTVSS | high polyreactivity
7 | QVQLVESGGGLVQAGGSLRLICAASGSTFIINAMGWYRQAPGKERELVARITQRGTSTFYADSVKGRFTISRDNAKNTVYLQMNSLKPDDTAVYYCAGRGSNSLGNKYDYWGQGTQVTVSS | high polyreactivity
8 | QVQLVESGGGLVQAGGSLRLSCAASGSTFYDYAMGWYRQAPGKERELVAAINGNGDSTYYADSVKGRFTISRDNAKNTVYLQMNSLKPEDTAVYYCAASGYRRYYGYDYWGQGTQVTVSS | low polyreactivity
9 | QVQLVESGGGLVQAGGSLRLSCAASGRTFASYTMGWYRQAPGKERELVAAISRGGNTYYADSVKGRFTISRDNAKNTVYLQMNSLKPEDTAVYYCAATAVKYDRRFYYWGQGTQVTVSS | high polyreactivity
10 | QVQLVESGGCLVQAGCSLRLSCAASGRIFSTYAMGWYRQAPGTERELVAAINKIGGSTYFADSVKGRFTISRDNAKNTVYLQMNSLKPEDTAVYYCAADAPYYPVRRYYYWGQGTQVTVSS | low polyreactivity
11 | QVQLVESGGGLVQAGGSLRLSCAASGITFEDYAMGWYRQAPGKERELVAAITSNGGSTYYADSVKGRFTISRDNAKNTVYLQMNSLKPEDTAVYYCAATKYFSYYGRVSWADGGYWGQGTQVTVSS | low polyreactivity
12 | QVQLVESGGGLVQAGGSLRLSCAASGFIFDLYAMGWYRQAPGKERELVAVISYDGGSTYYADSVKGRFTISRDNAKNTVYLQMNSLNPEDTAVYYCNTYAGLVSPSDLYDYWGQGTQVTVSS | low polyreactivity
13 | QVQLVDSGGGLVQAGGSLRLSCAASGRTIHGYAMGWYRQAPGKERELVAAINWRGGSTYYADSVKGRFTISRDNAKNTVYLQMNSLKPEDTAVYYCNKRQYSARVSRSYDYWGQGTQVTVSS | high polyreactivity
14 | QVQLVESGGGLVQAGGSLRLSCAASGNIITTYAMGWYRQAPGKERELVAAISRSGGRTNYADSVKGRFTISRDNAKNTVYLQMNSLKPEDTAVYYCAADGVPGRAVDYEYWGQGTQVTVSS | high polyreactivity
15 | QVQLVESGGGLVQAGGSLRLSCAASGRIFFVNAMGWYRQAPGKERELVAAISRGGTTYYADSVKGRFTISRDNAKNTVYLQMNSLKPEDTAVYYCNVAYTPSFYRYDYWGQGTQVTVSS | low polyreactivity
16 | QVQLVESGGGLVQAGGSLRLSCAASGRIFPRYAMGWYTQAPGKERELVAAITTGGSTYADSVKGRFTISRDNAKNTVYLQMNSLKPEDTAVYYCGVDGYVAFSPDRNNYWGQGTQVTVSA | low polyreactivity
17 | QVQLVESGGGLVQAGGSLRLSCAASGRIFYYNAMGWYRQAPGKERELVAGITSRGRSTYADSVKGRFTISRDNAKNTVYLQMNSLKPEDTAVYYCAAVYRLWGKDYDYWGQGTQVTVSS | high polyreactivity
18 | QVQLVESGGGLVQAGGSLRLSCAASGRTFQWYAMGWYRQAPGKERELVAAISYNGDSTYYADSVKGRFTISRDNAKNTVYLQMNSLKPEDTAVYYCAATPYPYYGYDYWGQGTQVTVSS | high polyreactivity
19 | QVQLVESGGGLVQAGGSLRLSCAASGSNFPYNAMGWYRQAPGKERELVAAITGRGGSTYYADSVKGRFTISRDNAKNTVYLHMNSLKPEDTAVYYCAAVTRNQGYYRYYYWGQGTQVTVSS | high polyreactivity
20 | QVQHVESGGGLVQAGGSLRLSCAASGLTFTYYVKGCYRQAPGKERELVAAITVSGGSTYYADSVKGRFTISRDNAKNTVYLQMNSLKPEDTAVYYCAADAYSGYSDYYWGQGTQVTVSS | low polyreactivity
21 | QVQLVESGGGLVQAGGILRLSCAASGFTFHRYAMGWYRQAPGKERELVARITRGGSTKYADSVKGRFTISRDNAKNTVYLQMNSLKPEDTAVYYCAADYGGFLGYDYWGQGNQVTVSS | high polyreactivity
22 | QGQLVESGGGLVQAGGSLRLSSAASGRTFPSYAMGWYRQAPGKERELVAAITVSGGNTYYADSVKGRFTISRDNAKNTVYLQMNSLKAEDTAVYYCNTASYVSWYVHYYYWGLGTQVTVSS | low polyreactivity

Row | Sequence | polyreactivity (PSR sort gate)
23 | QDQLVDSGGGLLQAGGSLRLSCAASGFTFWQYAMGWYRQAPGKERELVAAISGSGSSTYYADSEKGRFTISRDNAKNTVYLQMISLQPEYTAVYYCATAISRYGRFYYWGQGTQVTLSS | high polyreactivity
24 | QVQLVESGGCLVQAAGRLRLSSAASGSTFYGYAMGWYRQAPGKERQLVAAITVRGGSTYYADSVKGRFTISRDNAKNTVYLQMYSLKPEDTAVYYCNAYIVSGFYVYDYWGQGTQVTVSS | high polyreactivity
25 | QVQLVETGGGLVQAGGSLRLSCAASGRTFAKYAMGWYRQAPGKERDLVASISGRGTNTYYADSVKGRFTISRDNAKNTVYLQMNSLKPEDTAVYYCAATYVYPYRDSHYFYWGQGTQVTVSS | high polyreactivity
26 | QVQLVESGGGLVQAGGSLRLSCAASGRTFSYYAMGWYRQAPGKEREFVAAISSTGTSTYYADSVKGRFTISRDNAKNTVYLQMNSLKPEDTAVYYCNARVATYRLHSKFYYWGQGTQVTVSS | high polyreactivity
27 | QVQLVESGGGLVQAGGSLRLSCAASGSILTHYAMGWYRQAPGKERELVAAITWRGGSTYYADSVKGRFTISRDNAKNTVYLQMNSLKPEDSAVYYCNADYFGGGDYWGQGTQVTVSS | low polyreactivity
28 | QVQLVESGGGLVQAGGSLRLSCAASGSTFADNAMGWYRQAPGKERELVASISSSATSTYYADSVKGRFTISRDNAKNTVYLQMNSLKPEDSAVYYCSKGRPWYRGDFWGQGTQVTVSS | low polyreactivity
29 | QVQLVDSGGGLVQAGGSLRLSCAASGSTFDRNGMGWYRQAPGKERELVAAITRGGSTYYADSVKGRFTISRDNAKNTVYLQMNSLKPEDTAVYYCAKRYRGGYYYPYNYWGQGTQVTVSS | high polyreactivity
30 | QVQLVESGGGLVQAGGSLRLSCAASGRTFAYNAMGWYRQAPGKERELVASITSGGSTNYADSVKGRFTISRDNAKNTVYLQKNSLKPEDTAVYYCNKDGKYHRVLYDYWGLGTQVTVSS | low polyreactivity
31 | QVQLVESGGGLVQAGGSLRLSCAASGFTFTSYTMGWYRQAPGKERELVAAISYSGGNTYYADSVKGRFTISRDNAKNTVYLQMNSLKQEDTAVYYCAARYWYDSSNYSYDYWGQGTQVTVSS | low polyreactivity
32 | QVHHVESGGVLVQARVSLRLSCAASGIIIAYYAVGWYGQAPGKESELVAAITSGGSTSYADSVKGRFTISRDNAKNTVYLQMISLKPEDTAVYYCNTDPSGYESGYWGQGTQVTVSS | low polyreactivity
33 | QVQLVESGGGLVQAGGSLRLSCAASGFTFLSYTMGWYRQAPGKERELVASITASGTRTYYADSVKGRFTISRDNAKNTVYLQMNRLKPEDTSVYYCAARRSGSGSHDYGYWGQGTQVTVSS | low polyreactivity
34 | QVQLVESGGGLVQAGGSLRLSCDASGRILKYYDMGWYRQAPGKERELVAAISVSGTSTYYADSVKGRFTISRDNAKNTVYLQMNSLKPEDTAVYYCATATGRYSFDYWGQGTQVTVSS | low polyreactivity
35 | QVQLVESGGGLVQAGGSLRLSCAASGIIFHFNDMGWTTQAPGKERELVAAISRRGSTYYADSVTGRFTISRDNAKNSVYLQMNSLKPEDTAVYYCAKYRGRVKTYNGGYDYWGQGTQVSVSS | low polyreactivity
36 | QVQLVESGGGLVHAVGSLRLSCAASGFIFHEYAMGCYIQAPGKERELVAAISSGGGSTYYADSVKGRFTISRDNAKNTVYLQMNSLKPEDTAVYYCAADATAYSVLTRDYWGQGTQVTVSS | high polyreactivity
37 | QVQLVESGGGLVQAGGSLRLSCAASGSTFVSNAMGWYRQAPGKERELVAAITTGGSTYYADSVKGRFTISRDNAKNTVYLQMNSLKPEDTAVYYCAADSVLNWFWGYEYWGQGTQVTVSS | low polyreactivity
38 | QVQLVESGGGLVQAGGSLRLSCAASGFTFRYYAMGWYRQAPGKERELVATITTSGGSTYYADSVKGRFTISRDNAKNTVYVQMNSLKPEDTAVYYCAADYYYGRRFRSWRDFNYWGQGTQVTVSS | high polyreactivity
39 | QVHLVESGGGLVQAGGSLRLSCAASGSTFVANTMRWSRQAPGKERELVASITSGDSTNYADSVKGRFTISRDNAKNTVYLQMNSLKPEDTAVYYCSAETVWYYVGGQLIYYSWGQGTQVTVSS | low polyreactivity
40 | QVQLVESGGGLVQAGGSLRLSCAASGITFPLYAMGWYRQAPGKERELVATISGRGGSTYYADSVKGRFTISRDNAKNTVYLQMNSLKPEDTEVYYCNADFRSPYFLLSWYHSGDYWGQGTQVTVSS | low polyreactivity
41 | QVQLVESGGGLVQAGGSLRLSCAASGRTLSYYAMGWYRQAPGKHRELVAAITYRAGRTYYADSVKGRFTISRDNAKYTVYLQLNSLKPEVTAVYYCYAVKSTGYGYWGQGTQVTVSS | high polyreactivity
42 | QVQHVESGGGIVQAGGSLRLSCAASGRTYAINAMGSYRQAPGKEMELLASITTRDSSTYYADSVKGRFTISRDNAKNTVYLQMKSLIPDDTAVYYCAKVKLVTYLYRLFVYGSYYWGLGTQVTVSS | low polyreactivity
43 | QVQLVESGGGIVQAGGSLRLSCAAAGSNFTVYVMGWYRQAPGKERELVARISSDGSTNYADSVKGRFTISRDNAKNSVFLQMNSLKPEDTAVYYCNADFPFSGRRPWYNAYDYWGQGTQVTVSS | low polyreactivity
